Measurements from paper doi:10.1101/2020.06.23.166439.

Molecular target: tail tube protein (TTP) gp17.1 of bacteriophage SPP1 (bacteriophage SPP1)
Assay: cryo-EM structure + other: solid-state NMR

Substance: tail tube protein (TTP) gp17.1 of bacteriophage SPP1 (natural protein)
- stoichiometry N: 6
